Paper PMC9482650, “Quantitative fragmentomics allow affinity mapping of interactomes” (Nature Communications, 2022)

T1: GRIP1_5, Q9Y3R0
T1 sequence (Q9Y3R0 568-668, limits assumed, looked up): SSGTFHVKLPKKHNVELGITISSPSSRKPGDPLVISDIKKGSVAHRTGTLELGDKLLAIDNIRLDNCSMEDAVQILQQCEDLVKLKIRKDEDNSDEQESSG

T2: TJP3_3, O95049
T2 sequence (O95049 375-456, limits assumed, looked up): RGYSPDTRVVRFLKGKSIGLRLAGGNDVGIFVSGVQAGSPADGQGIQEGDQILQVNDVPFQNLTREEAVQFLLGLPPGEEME

T3: APBA2_1, Q99767
T3 sequence (Q99767 563-664, limits assumed, looked up): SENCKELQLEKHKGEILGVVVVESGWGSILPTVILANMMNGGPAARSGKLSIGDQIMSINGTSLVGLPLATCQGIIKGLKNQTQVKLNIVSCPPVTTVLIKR

T4: GRIP1_2, Q9Y3R0
T4 sequence (Q9Y3R0 145-248, limits assumed, looked up): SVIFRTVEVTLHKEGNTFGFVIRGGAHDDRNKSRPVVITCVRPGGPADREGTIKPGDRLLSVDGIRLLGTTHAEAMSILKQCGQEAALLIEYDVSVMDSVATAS

T5: SYNJ2BP, P57105
T5 sequence (P57105 8-110, limits assumed, looked up): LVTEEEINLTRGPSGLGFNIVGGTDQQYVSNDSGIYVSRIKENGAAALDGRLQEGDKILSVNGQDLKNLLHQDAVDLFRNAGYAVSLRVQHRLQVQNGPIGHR

T6: APBA1_1, Q02410
T6 sequence (Q02410 651-752, limits assumed, looked up): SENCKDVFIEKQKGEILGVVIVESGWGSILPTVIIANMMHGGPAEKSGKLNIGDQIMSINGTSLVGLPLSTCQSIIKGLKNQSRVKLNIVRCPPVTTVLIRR

T7: GRIP1_3, Q9Y3R0
T7 sequence (Q9Y3R0 247-346, limits assumed, looked up): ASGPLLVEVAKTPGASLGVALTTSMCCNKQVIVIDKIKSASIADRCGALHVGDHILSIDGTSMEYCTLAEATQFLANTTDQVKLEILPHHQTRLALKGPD

T8: MPP7, Q5T2T1
T8 sequence (Q5T2T1 134-230, limits assumed, looked up): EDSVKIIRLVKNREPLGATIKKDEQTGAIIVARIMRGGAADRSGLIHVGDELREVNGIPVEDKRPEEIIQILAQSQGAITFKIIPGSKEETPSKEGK

T9: GRIP1_7, Q9Y3R0
T9 sequence (Q9Y3R0 999-1096, limits assumed, looked up): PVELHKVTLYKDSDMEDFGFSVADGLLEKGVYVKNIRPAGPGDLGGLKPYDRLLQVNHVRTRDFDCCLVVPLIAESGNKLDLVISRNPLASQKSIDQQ


Tests used:
Assay in all cases: holdup assay
Set-up in all cases: key: below the threshold = too weak to quantify, mostly under pKd 3.1 to 4
Conditions in all cases: plain residues with an end cap or a label only (N-terminal biotin on a linker: ado-ado)
[1] = target: CASK, O14936
Sequence of CASK, O14936 (O14936 487-570): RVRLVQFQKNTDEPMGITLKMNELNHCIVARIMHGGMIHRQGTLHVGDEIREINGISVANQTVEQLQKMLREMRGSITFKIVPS

[2] = target: GRIP2_6, Q9C0E4
Sequence of GRIP2_6, Q9C0E4 (Q9C0E4 648-740): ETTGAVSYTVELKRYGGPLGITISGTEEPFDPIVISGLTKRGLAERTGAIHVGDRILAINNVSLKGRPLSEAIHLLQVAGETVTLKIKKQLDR

[3] = target: MAGI2_4, Q86UL8
Sequence of MAGI2_4, Q86UL8 (Q86UL8 772-865): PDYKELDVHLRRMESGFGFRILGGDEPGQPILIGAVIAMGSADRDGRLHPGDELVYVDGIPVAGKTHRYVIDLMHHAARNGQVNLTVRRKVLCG

[4] = target: GRID2IP_1, A4D2P6
Sequence of GRID2IP_1, A4D2P6 (A4D2P6 1-87): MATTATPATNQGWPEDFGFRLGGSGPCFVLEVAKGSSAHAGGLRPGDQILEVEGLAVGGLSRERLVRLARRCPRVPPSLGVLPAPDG

[5] = target: GORASP2, Q9H8Y8
[6] = target: T1, GRIP1_5, Q9Y3R0
[7] = target: SCRIB_1, Q14160
Sequence of SCRIB_1, Q14160 (Q14160 718-814): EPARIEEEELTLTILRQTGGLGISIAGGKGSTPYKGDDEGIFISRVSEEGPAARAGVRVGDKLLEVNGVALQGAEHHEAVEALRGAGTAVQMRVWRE

[8] = target: T2, TJP3_3, O95049
[9] = target: MAGI2_2, Q86UL8
Sequence of MAGI2_2, Q86UL8 (Q86UL8 410-522): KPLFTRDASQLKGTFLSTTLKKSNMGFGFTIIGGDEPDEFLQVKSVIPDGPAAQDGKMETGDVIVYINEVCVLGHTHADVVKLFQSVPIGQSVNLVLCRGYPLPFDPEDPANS

[10] = target: T3, APBA2_1, Q99767
[11] = target: HTRA2, O43464
Sequence of HTRA2, O43464 (O43464 355-458): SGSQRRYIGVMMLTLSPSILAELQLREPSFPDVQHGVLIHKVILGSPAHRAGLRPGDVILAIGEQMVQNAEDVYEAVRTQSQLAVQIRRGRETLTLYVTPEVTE

[12] = target: Inadl_2, Q8NI35
Sequence of Inadl_2, Q8NI35 (Q8NI35 238-335): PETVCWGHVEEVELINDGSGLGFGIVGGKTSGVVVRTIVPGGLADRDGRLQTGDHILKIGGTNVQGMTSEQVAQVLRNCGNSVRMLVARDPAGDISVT

[13] = target: GRIP2_7, Q9C0E4
Sequence of GRIP2_7, Q9C0E4 (Q9C0E4 934-1023): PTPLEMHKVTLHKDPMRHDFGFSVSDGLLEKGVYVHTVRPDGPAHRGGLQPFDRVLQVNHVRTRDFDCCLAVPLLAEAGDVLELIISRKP

[14] = target: GRIP2_4, Q9C0E4
Sequence of GRIP2_4, Q9C0E4 (Q9C0E4 446-548): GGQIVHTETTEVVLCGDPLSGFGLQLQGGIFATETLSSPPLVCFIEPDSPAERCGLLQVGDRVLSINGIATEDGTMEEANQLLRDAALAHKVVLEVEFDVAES

[15] = target: T4, GRIP1_2, Q9Y3R0
[16] = target: T5, SYNJ2BP, P57105
[17] = target: T6, APBA1_1, Q02410
[18] = target: T7, GRIP1_3, Q9Y3R0
[19] = target: LAP2, Q96RT1
Sequence of LAP2, Q96RT1 (Q96RT1 other isoform, or with tags, fused parts or gaps): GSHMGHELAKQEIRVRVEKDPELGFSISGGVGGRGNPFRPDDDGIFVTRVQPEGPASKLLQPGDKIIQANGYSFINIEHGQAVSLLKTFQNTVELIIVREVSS

[20] = target: T8, MPP7, Q5T2T1
[21] = target: TJP2_1, Q9UDY2
Sequence of TJP2_1, Q9UDY2 (Q9UDY2 24-128): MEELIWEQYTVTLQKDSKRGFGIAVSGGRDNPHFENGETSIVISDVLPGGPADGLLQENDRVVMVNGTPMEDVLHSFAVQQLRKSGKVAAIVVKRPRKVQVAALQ

[22] = target: GRIP2_5, Q9C0E4
Sequence of GRIP2_5, Q9C0E4 (Q9C0E4 544-642): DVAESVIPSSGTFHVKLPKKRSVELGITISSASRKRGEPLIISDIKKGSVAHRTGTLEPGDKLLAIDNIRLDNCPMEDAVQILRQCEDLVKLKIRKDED

[23] = target: SNX27, Q96L92
[24] = target: DLG5_1, Q8TDM6
Sequence of DLG5_1, Q8TDM6 (Q8TDM6 617-713): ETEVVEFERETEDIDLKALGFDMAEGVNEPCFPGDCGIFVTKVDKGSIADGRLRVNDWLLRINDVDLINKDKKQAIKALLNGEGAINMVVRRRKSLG

[25] = target: T9, GRIP1_7, Q9Y3R0
[26] = target: FRMPD4, Q14CM0
Sequence of FRMPD4, Q14CM0 (Q14CM0 67-160): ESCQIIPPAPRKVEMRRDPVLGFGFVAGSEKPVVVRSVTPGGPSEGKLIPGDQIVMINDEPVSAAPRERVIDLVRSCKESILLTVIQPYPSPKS

[27] = target: SCRIB_2, Q14160
Sequence of SCRIB_2, Q14160 (Q14160 857-960): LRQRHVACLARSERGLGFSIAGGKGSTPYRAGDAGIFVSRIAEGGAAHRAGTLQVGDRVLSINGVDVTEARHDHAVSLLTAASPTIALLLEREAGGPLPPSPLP

[28] = target: PDZRN4_1, Q6ZMN7
Sequence of PDZRN4_1, Q6ZMN7 (Q6ZMN7 213-318): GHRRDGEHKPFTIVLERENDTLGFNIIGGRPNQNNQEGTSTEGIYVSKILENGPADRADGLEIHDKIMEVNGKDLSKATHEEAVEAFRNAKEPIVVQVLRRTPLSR

Row | Binder | pKd [1] | pKd [2] | pKd [3] | pKd [4] | pKd [5] | pKd [6] | pKd [7] | pKd [8] | pKd [9] | pKd [10] | pKd [11] | pKd [12] | pKd [13] | pKd [14] | pKd [15] | pKd [16] | pKd [17] | pKd [18] | pKd [19] | pKd [20] | other results
1 | QRYPGNQTTC [CCL24, O00175] | below the threshold | below the threshold | below the threshold | below the threshold | below the threshold | below the threshold | 3.92 | below the threshold | below the threshold | below the threshold | below the threshold | below the threshold | below the threshold | below the threshold | below the threshold | below the threshold | below the threshold | below the threshold | below the threshold | below the threshold | pKd [21]: below the threshold; pKd [22]: below the threshold; pKd [23]: below the threshold; pKd [24]: below the threshold; pKd [25]: below the threshold; pKd [26]: below the threshold; pKd [27]: below the threshold; pKd [28]: below the threshold
2 | KLQNPNQSVV [TYRP1, P17643] | below the threshold | below the threshold | 3.63 | below the threshold | 3.73 | below the threshold | 3.52 | below the threshold | 4 | below the threshold | below the threshold | below the threshold | below the threshold | below the threshold | below the threshold | 3.91 | below the threshold | below the threshold | below the threshold | below the threshold | pKd [21]: below the threshold; pKd [22]: below the threshold; pKd [23]: 4.04; pKd [24]: below the threshold; pKd [25]: below the threshold; pKd [26]: below the threshold; pKd [27]: below the threshold; pKd [28]: below the threshold
3 | HYPASPDSWV [CTNND2, Q9UQB3] | below the threshold | below the threshold | 4.34 | below the threshold | 4.51 | below the threshold | 4.06 | 4.91 | below the threshold | below the threshold | 4.12 | below the threshold | 3.95 | below the threshold | below the threshold | 5.07 | below the threshold | below the threshold | 5.58 | below the threshold | pKd [21]: 4.37; pKd [22]: below the threshold; pKd [23]: 5.06; pKd [24]: below the threshold; pKd [25]: 3.75; pKd [26]: 3.76; pKd [27]: 4.81; pKd [28]: 4.14
4 | VCMGDHWFDV [PRKN, O60260] | 4.83 | 3.79 | 4.04 | below the threshold | 4.77 | below the threshold | 3.55 | 4.57 | below the threshold | below the threshold | 3.96 | 3.51 | 4.36 | below the threshold | below the threshold | below the threshold | below the threshold | below the threshold | 3.67 | 4.85 | pKd [21]: below the threshold; pKd [22]: below the threshold; pKd [23]: 4.14; pKd [24]: below the threshold; pKd [25]: 3.56; pKd [26]: 3.86; pKd [27]: below the threshold; pKd [28]: below the threshold
